Assay results taken from paper PMC3711442 (Nucleic Acids Research, 2013).
Substitutions are numbered along the chain they refer to. Numbers in names are those of the source.

B1: phage ϕ29 protein p56, wild type (natural protein, Bacillus subtilis phage ϕ29)
chain: MVQNDFVDSYDVTMLLQDDDGKQYYEYHKGLSLSDFEVLYGNTADEIIKLRLDKVL
B2: phage ϕ29 protein p56 H28K (natural protein, Bacillus subtilis phage ϕ29)
chain: B1 chain with H28K
B3: phage ϕ29 protein p56 V38E (natural protein, Bacillus subtilis phage ϕ29)
chain: B1 chain with V38E
B4: phage ϕ29 protein p56 D45R (natural protein, Bacillus subtilis phage ϕ29)
chain: B1 chain with D45R
B5: phage ϕ29 protein p56 D45S (natural protein, Bacillus subtilis phage ϕ29)
chain: B1 chain with D45S
B6: phage ϕ29 protein p56 N42R (natural protein, Bacillus subtilis phage ϕ29)
chain: B1 chain with N42R

Columns and labels:
Assay in all cases: pull-down
GST-BsUDG S189A = biological target: T1, GST-BsUDG S189A (Bacillus subtilis, UniProt P39615 1-225, S189A)
T1 sequence: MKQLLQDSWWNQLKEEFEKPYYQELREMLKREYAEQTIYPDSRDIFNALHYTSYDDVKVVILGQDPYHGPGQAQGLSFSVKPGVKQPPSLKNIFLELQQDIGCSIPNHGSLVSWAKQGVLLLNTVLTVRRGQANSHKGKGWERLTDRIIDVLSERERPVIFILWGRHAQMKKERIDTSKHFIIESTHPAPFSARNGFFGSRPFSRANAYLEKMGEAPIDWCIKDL

GST-BsUDG R194S = biological target: T2, GST-BsUDG R194S (Bacillus subtilis, UniProt P39615 1-225, R194S)
T2 sequence: T1 sequence with A189S, R194S

GST-BsUDG, wild type = biological target: T3, GST-BsUDG, wild type (Bacillus subtilis, UniProt P39615 1-225)
T3 sequence: T1 sequence with A189S

| Binder | complexes formed relative to wild-type p56 (GST-BsUDG, wild type) [%] | also measured |
| --- | --- | --- |
| B1 | – | reduction in p56 binding relative to wild-type GST-BsUDG (GST-BsUDG S189A): 84%; reduction in p56 binding relative to wild-type GST-BsUDG (GST-BsUDG R194S): 75% |
| B2 | < 10 | – |
| B3 | < 10 | – |
| B4 | < 10 | – |
| B5 | – | complex formation relative to wild-type p56 (GST-BsUDG, wild type): ~75% |
| B6 | < 10 | – |
